Substrate in the data set “purified protein”: O=[N+]([O-])c1ccc(O[C@@H]2O[C@H](CO)[C@@H](O)[C@H](O)[C@H]2O)cc1
The experiment in a line: purified protein. Conditions: pH 5.5, 30°C, 0.5-15 mM substrate, authors note sigmoidal v0 vs [S].

Substrate in data set [1]: O=c1ccc2cc(O[C@@H]3O[C@H](CO)[C@@H](O)[C@H](O)[C@H]3O)c(O)cc2o1
The data set is described as follows: HPLC of glucose or aglycone, Michaelis-Menten fit. The class given is biochemical, Lacticaseibacillus paracasei. Conditions: pH 5.5, 30°C, 0.5-15 mM substrate. The source says:
(§1) HPLC of glucose or aglycone, Michaelis-Menten fit on LpBgla

Substrate in data set [2]: OC[C@H]1O[C@@H](Oc2cc(O)cc(/C=C/c3ccc(O)cc3)c2)[C@H](O)[C@@H](O)[C@@H]1O
The data set is described as follows: HPLC of glucose or aglycone, Michaelis-Menten fit. The data set is classed as biochemical, Lacticaseibacillus paracasei. Conditions: pH 5.5, 30°C, 0.5-15 mM substrate.
Description: as §1

Substrate in data set [3]: OCc1ccccc1O[C@@H]1O[C@H](CO)[C@@H](O)[C@H](O)[C@H]1O
The experiment in a line: HPLC of glucose or aglycone, Michaelis-Menten fit. The class given is biochemical, Lacticaseibacillus paracasei. Conditions: pH 5.5, 30°C, 0.5-15 mM substrate.
Description: as §1

Substrate in data set [4]: COC(=O)C1=CO[C@@H](O[C@@H]2O[C@H](CO)[C@@H](O)[C@H](O)[C@H]2O)[C@@H]2C(CO)=CC[C@H]12
The data set is described as follows: HPLC of glucose or aglycone, Michaelis-Menten fit. The data set is classed as biochemical, Lacticaseibacillus paracasei. Conditions: pH 5.5, 30°C, 0.5-15 mM substrate.
Description: as §1

Substrate in data set [5]: OC[C@H]1O[C@@H](Oc2ccc(O)cc2)[C@H](O)[C@@H](O)[C@@H]1O
The data set is described as follows: HPLC of glucose or aglycone, Michaelis-Menten fit. The class given is biochemical, Lacticaseibacillus paracasei. Conditions: pH 5.5, 30°C, 0.5-15 mM substrate.
Description: as §1

Our source for the Km, kcat and kcat/Km values is publication PMC10851751, “Characterization and insight mechanism of an acid-adapted β-Glucosidase from Lactobacillus paracasei and its application in bioconversion of glycosides” (Frontiers in Bioengineering and Biotechnology, 2024).

B1: LpBgla (Lacticaseibacillus paracasei ATCC 334) (protein)
chain: MGVVVSNFHLAKITAEEKVKLTSGKDFWTSEHLADKGIPSFRMSDGPHGLRYQALAADHLGINDSVPSTSFPTASASAAAWDPDLIQAMGKAIGLEAQSLGVDMVLGPGVNMKRNPLCGRNFEYFSEDPFLAGKLGAAWINGIQSQGIAACLKHFAANNQENDRLSSDSLVDPTALHEIYLEAFRIAVTESHPEAVMCSYNKINGTYASDNLYLMTQVLRQQFGFGGAVITDWGALNDKVAALNAGTDLEMPGDDHLFDGEALQAYQQGTLKLASLDRAVTKIAEIARKQRPKFQGSREQLLQANGQLAQKIAESAIVLLKNEAALLPLQATDTVAVIGELAKATRFQGAGSSHINASEIVSVLDGLKQKKVSFDYAAGYRLDDQDDSQATAEALALARNHDKVVFVAGLPDNYESEGFDRQNMALPKVQNDLLQAVTAVNPNVIVLLVAGAPVELPWVDQVKAVVNLSLGGERIGAAAANVLTGAVNPSGKLAESYPLKYQDVPSADVYDKKPRSVPYVESTYIGYRYYDKAKVPVAFPFGFGLSYTSFALKNIQLSSDHVTDDQPLTISLQVTNTGQVDGAEVVQVYVQEQQPRPLRPEKSLKAFKKVFVKAGQTVNVALELKAQAFKEWREQTQTWVLPEAQKAIAVGTSVTNIDAVLPVSFTGETFNNFATIPNWYTTLSGKPSVQDFEQLTDQKVPAPHEFVPGEFTRLNTPREMKKHSLLLRLVAWITVKIRTKDYIDKQGPEAKFQQAIVLDTPLIRLAQQASGALKLSMVDRLVAAANHQYVKMIFR
notes: full-length gene (2,388 bp, 796 amino acids), pET28a, His-tagged, E. coli BL21(DE3), Ni-NTA; monomer
With B1, the Km (as a rule, the substrate concentration at which the rate is half of its maximum) was found to be 1440 ± 80 µM in “purified protein”; 3610 ± 80 µM in data set [1]; 5710 ± 100 µM in data set [2]; 2250 ± 10 µM in data set [3]; 2870 ± 50 µM in data set [4]; 1920 ± 30 µM in data set [5]. Also, the turnover number (kcat) (in general, the maximal rate divided by the concentration of active sites) in “purified protein” stood at 3982 ± 14 s⁻¹; in data set [1], 2210 ± 38 s⁻¹; in data set [2] it was 1730 ± 45 s⁻¹; in data set [3], 2970 ± 88 s⁻¹; in data set [4], 2520 ± 23 s⁻¹; in data set [5] it was 3570 ± 72 s⁻¹. Further, the catalytic efficiency (kcat/Km) (usually the turnover number divided by the Michaelis constant) came to 2.76e+06 M⁻¹ s⁻¹ in “purified protein”; 611000 M⁻¹ s⁻¹ in data set [1]; 303000 M⁻¹ s⁻¹ in data set [2]; 1.32e+06 M⁻¹ s⁻¹ in data set [3]; 878000 M⁻¹ s⁻¹ in data set [4]; 1.86e+06 M⁻¹ s⁻¹ in data set [5].
